The source of these data is patent publication US20250051821.

For data set [1], the target named is T1, IFF01073 produced in T. reesei with glycosylation.
T1 chain: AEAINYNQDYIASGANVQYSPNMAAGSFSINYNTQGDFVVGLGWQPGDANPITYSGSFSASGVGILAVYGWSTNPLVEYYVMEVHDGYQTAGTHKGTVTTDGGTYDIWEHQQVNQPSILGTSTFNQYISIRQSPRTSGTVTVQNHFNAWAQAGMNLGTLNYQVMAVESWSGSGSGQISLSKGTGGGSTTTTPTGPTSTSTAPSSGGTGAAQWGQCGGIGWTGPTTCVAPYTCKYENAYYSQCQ

Data set [2] concerns the target IFF08955.
Data set [3] concerns the target T2, IFF01509.
T2 chain: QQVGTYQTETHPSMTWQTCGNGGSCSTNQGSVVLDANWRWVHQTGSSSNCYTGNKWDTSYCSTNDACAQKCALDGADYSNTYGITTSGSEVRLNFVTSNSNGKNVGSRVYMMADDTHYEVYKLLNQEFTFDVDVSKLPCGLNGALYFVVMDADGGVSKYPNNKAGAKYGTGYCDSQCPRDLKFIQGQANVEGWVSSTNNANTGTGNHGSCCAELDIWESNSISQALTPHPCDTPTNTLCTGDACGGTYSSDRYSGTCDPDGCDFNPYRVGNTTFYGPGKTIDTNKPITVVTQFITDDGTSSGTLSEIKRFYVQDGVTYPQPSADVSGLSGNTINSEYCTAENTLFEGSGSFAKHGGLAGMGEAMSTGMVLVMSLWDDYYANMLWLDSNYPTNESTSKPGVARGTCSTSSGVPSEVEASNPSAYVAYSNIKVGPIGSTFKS

Data set [4] concerns the target IFF08955v3.
The target in data set [5] is T3, IFF01540.
T3 chain: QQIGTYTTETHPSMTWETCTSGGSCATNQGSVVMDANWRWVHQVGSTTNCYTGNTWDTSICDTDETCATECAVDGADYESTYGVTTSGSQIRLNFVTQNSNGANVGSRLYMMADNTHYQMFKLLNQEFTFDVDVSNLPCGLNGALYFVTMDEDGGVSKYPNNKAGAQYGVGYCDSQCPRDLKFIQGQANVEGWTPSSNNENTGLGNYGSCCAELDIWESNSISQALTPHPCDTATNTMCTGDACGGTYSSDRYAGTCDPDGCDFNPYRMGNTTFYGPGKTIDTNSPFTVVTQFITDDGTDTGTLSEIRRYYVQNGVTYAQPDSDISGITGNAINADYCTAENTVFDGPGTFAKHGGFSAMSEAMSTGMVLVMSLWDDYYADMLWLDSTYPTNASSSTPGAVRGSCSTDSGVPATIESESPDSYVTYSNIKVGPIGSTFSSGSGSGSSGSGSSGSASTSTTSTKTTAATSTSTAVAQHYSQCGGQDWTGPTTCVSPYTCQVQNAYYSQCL

The target of data set [6] is T4, IFF01073 produced in E. coli without glycosylation.
T4 chain: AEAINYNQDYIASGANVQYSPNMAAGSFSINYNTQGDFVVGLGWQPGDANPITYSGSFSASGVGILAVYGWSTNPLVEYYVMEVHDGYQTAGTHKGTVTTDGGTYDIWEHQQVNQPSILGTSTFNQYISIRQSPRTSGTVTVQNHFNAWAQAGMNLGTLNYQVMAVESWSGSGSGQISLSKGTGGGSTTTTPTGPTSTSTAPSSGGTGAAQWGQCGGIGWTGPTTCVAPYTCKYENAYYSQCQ

For data set [7], the target named is T5, IFF05588.
T5 chain: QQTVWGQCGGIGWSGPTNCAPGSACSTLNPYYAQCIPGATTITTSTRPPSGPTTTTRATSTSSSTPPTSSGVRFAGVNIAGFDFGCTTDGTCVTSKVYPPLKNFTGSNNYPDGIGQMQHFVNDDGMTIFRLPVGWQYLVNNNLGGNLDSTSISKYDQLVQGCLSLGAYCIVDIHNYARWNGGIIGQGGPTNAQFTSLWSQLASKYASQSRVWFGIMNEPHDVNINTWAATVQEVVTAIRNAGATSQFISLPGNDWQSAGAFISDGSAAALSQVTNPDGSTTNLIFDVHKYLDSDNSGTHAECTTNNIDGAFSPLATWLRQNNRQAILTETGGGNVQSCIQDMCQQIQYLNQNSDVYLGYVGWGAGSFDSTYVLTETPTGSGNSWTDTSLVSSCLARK

In data set [8] the target is IFF03904.
Data set [9] has as its target IFF06679.
Data set [10] has as its target T6, IFF07399.
T6 chain: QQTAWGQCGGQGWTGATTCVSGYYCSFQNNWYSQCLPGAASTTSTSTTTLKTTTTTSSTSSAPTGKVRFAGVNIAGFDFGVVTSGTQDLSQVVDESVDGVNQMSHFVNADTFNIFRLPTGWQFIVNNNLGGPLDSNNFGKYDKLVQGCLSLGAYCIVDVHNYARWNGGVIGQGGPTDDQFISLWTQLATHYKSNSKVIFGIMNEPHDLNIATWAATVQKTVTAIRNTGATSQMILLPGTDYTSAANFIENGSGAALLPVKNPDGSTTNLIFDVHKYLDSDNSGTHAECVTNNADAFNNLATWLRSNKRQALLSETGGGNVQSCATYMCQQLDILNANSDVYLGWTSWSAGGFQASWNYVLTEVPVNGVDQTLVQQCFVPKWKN

B1: IFF05497 (protein)
chain: LAILDKPVIQPNFPGNGLASLGQGLMDHLAPTHSTWDDWGAGWIPQDCKSLVEGAGLSASDVIPFNIHYDDCAQTWTFCRHKDSPLSEITILDIFGRLPVRMRSFVRHLVFIPGAKSAGSNGDNVLLRGDIDVTVFAHEIGHSLDSHAFDPSYGVPFSTGNVWISNYNLDSAVPDPYAQTSQQENFAQQTVISLYDKVVPGGIGTIQPNWQAIFHQYATLEGYIGDVIIPGGTCTHRLTDSPPVQMSSLAKGRRALGPKPNVALSPEVEEIEAIPMKSSITMTSFDEAGKPNGTYVINL
For the protein B1, the results for the “Gel mobility change (SDS-PAGE)” value in data set [1], in data set [6] and in data set [10] were “yes”, “no” and “yes”, respectively. Besides, the “Mobility change (SDS-PAGE)” value in [1] was “yes”; in data set [2], “no”; in data set [3] it was “no”; in [4], “yes”; in data set [5], “yes”; in data set [7] it was “yes”. Further, the “Mobility change (SDS-PAGE)” value in data set [8], in data set [9] and in data set [10] was “yes” throughout. In data set [7], this protein displayed a Relative late peak area (centered, scaled, averaged over 5, 10 and 15 min) of -0.77. In addition, the Relative late peak area (centered, scaled, averaged over doses, 24 h; sample diluted 1-fold) in [7] was -0.28.
